Results: US20250320480A1, “Immunoglobulin Cleaving Enzyme” (priority 2021, published 2025)

Key:
Assay type in all cases: biochemical
mouse IgG2a = mouse IgG2a (Mus musculus, UniProt P01863); test: Immunoglobulin specificity on SDS-PAGE: mouse IgG2a; details: 37° C.
Method: FIG. 3. Specificity of IdeSork2.0. IdeSork2.0 was mixed with different antibodies and incubated o/n at 37° C. before analysis on SDS-PAGE. The enzyme itself is noted with an arrow. […] Mouse IgG1, mouse IgG2b and human IgA were not affected by IdeSork2.0.
(§1) Various antibodies and antibody based therapeutics were incubated with Xork, IdeS, or IdeZ (1:40 ratio) for 1 hour at 37° C. in PBS, with substrate concentrations ranging between 2-5 mg/mL, before being analyzed on SDS-PAGE. For kinetic studies, a substrate level of 2-200 μM IVIG was used during 10 min at 37° C. before being analyzed on a UHPLC system.

guinea pig IgG = test: Immunoglobulin specificity on SDS-PAGE: guinea pig IgG; details: o/n at 37° C.
Method: FIG. 11. Specificity of IdeSork2.0. IdeSork2.0 was mixed with different antibodies and incubated o/n at 37° C. before analysis on SDS-PAGE.
as §1

IgG [1] = test: Optimal conditions, Box-Behnken design (pH, NaCl, temperature)
Method: FIG. 7. IdeSork2.0 optimal conditions. The optimal buffer composition for IdeSork2.0 was determined using a Box-Behnken experimental design, measuring the impact of pH, NaCl and temperature. Output was measures as percentage hydrolysis of IgG.
The optimal conditions for IdeSORK2.0 were assessed using a Box-Behnken experimental design to assess multiple factors and their inter-dependence. […] The enzymatic reaction is mainly driven by the substrate concentration (high concentration favours the reaction), while the enzyme concentration is secondary. This can also be seen as a low percentage IgG not being readily hydrolyzed even after a pro-longed incubation (FIG. 9).
To better understand the optimal conditions needed for the enzyme to exert its activity, a Box-Behnken design was employed for the experiment. Addition of NaCl (0-400 mM), pH (5.5-8.5), [enzyme], [substrate], time, and temperature were parameters investigated. Unless otherwise noted, all experiments were conducted in TBS at an enzyme: substrate ratio of 1:20, for 1 hour at 37° C.

IgG1 = test: Comparison to other IgG proteases: IgG1; details: SDS-PAGE
Method: FIG. 10. IdeSork2.0 is having a similar activity compared to IdeS and IdeZ. To investigate if IdeSork2.0 is hydrolyzing IgG in a similar way as IdeS and IdeZ they were all incubated against IgG1 and IgG2 and analyzed on SDS-PAGE. The cleavage patterns look identical, with both IdeSork2.0 and IdeS having less activity towards IgG2.
To further look into the activity of IdeSORK2.0, its activity was compared with IdeS and IdeZ against both IgG1 and IgG2.

IgG [2] = test: Time-dose assays (enzyme:substrate ratio, time)
Method: FIG. 8. IdeSork2.0 enzyme: substrate ratio. The impact of enzyme and substrate concentration for the reaction speed was investigated using a Box-Behnken experimental setting, also analyzing the impact of time for the reaction speed. Output was measured as percentage hydrolysis of IgG (top left figure), as well as quantity hydrolyzed IgG per unit enzyme (all other figures).
FIG. 9. IdeSork2.0 enzyme: substrate activity over time. To verify the impact of modifying the enzyme: substrate ratio, an experiment with varying amounts of substrate (5-40 μg) to a set amount of enzyme (1 μg) was conducted over time (30, 60, and 120 min).
To investigate the impact of substrate and enzyme concentration, as well as time needed to complete (>95% hydrolysis) a reaction, a new Box-Behnken assay was designed (FIG. 8). The data was supported by traditional assays, with similar results (FIG. 9). IdeSORK2.0 quite rapidly hydrolyzes the vast majority of the material, but needs a longer time to finish hydrolysis of the last percentages of intact IgG, similar to other immunoglobulin proteases. A ratio of 1:40 hydrolyzes >95% of IgG in 30-60 minutes.
To better understand the optimal conditions needed for the enzyme to exert its activity, a Box-Behnken design was employed for the experiment. Addition of NaCl (0-400 mM), pH (5.5-8.5), [enzyme], [substrate], time, and temperature were parameters investigated. […]

Sequence of mouse IgG2a (P01863 whole entry): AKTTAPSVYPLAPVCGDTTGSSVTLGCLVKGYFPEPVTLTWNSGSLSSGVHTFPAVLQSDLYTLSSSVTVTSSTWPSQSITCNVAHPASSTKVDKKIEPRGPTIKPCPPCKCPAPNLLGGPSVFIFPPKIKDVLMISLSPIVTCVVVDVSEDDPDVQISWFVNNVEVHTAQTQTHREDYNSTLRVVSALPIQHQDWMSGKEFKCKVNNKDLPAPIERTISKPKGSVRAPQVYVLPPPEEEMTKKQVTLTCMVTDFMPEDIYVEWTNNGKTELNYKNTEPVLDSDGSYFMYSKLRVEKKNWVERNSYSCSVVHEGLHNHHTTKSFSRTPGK

B1: IdeSORK2.0: SEQ ID NO: 2 (N terminal 312 amino acids of IdeSORK) with added N terminal methionine and C-terminal His6; 319 amino acids (protein)
chain: MSKRKLLKKIEKKDTSSVLTQKKQTKTLWADGVQVDDKDFKPSTENFGTNYLAAEYGIGKGYYDINKKFDGTDDDLCSGVVAANQLHWWLDRNKDYIEKYRQQSKDNGVTIGNTDIFELNKLHDEDQSNFFDFIKKSFGNKFLQPERLLNMYINGYGYLTSQDKAKTSQPSPSKLNFFQKVFKNNLLTDKTPINDIDEFSSQTKNALQNHKVLAVSFASIKNRGLGHVVTVWGADFDENGKVVALYVTDSDDRSKNIGNAKLGMKKLRIEVSAQDSSTIKLTGFEDKNSGGSLRHLYSLSTGEQIWKKYFEETHHHHHH
modifications: (IdeSORK2.0) Protein of SEQ ID NO 2 engineered to include an additional N terminal methionine and a C-terminal protein purification tag - His6
Mouse IgG2a
  Activity towards mouse IgG2a: active
Mouse IgG2a; listed as IdeSork2.0
  Activity towards mouse IgG2a: could be hydrolyzed
Guinea pig IgG
  Activity on guinea pig IgG: showed activity
IgG [1]
  NaCl optimum: 0 mM
  NaCl tolerated without a significant drop in activity: up to 200 mM
  Requirement for co-factors or reducing agents: no requirement for co-factors or reducing agents
  pH in which highly active: 7.0-8.5
  pH optimum: 7.5
IgG [1]; 37° C. versus room temperature
  Effect of temperature on activity: improved when incubated at 37 °C as compared to room temperature
IgG [1]; >90% activity
  NaCl range: 0 to 200 mM
  pH range: 6.5-8.5
IgG1
  Hydrolysis of IgG1: able to hydrolyze
IgG [2]; 5-40 μg substrate to 1 μg enzyme, 30, 60 and 120 min
  Hydrolysis of IgG over time at varying substrate amounts: Almost all IgG is hydrolyzed within 30 minutes
IgG [2]; ratio 1:40, 30-60 minutes
  Hydrolysis of IgG: > 95%
